In PMC13544220, “Glycemic and bodyweight effects of GIPR coding variation reflect differences in surface expression and intrinsic functional impairment” (Science Advances, 2026):
Numbering of substitutions follows the chain as printed.

B1: p.Glu288Gly (protein, UniProt P48546 22-466, looked up, variant E288G)
Gastric inhibitory …: RAETGSKGQTAGELYQRWERYRRECQETLAAAEPPSGLACNGSFDMYVCWDYAAPNATARASCPWYLPWHHHVAAGFVLRQCGSDGQWGLWRDHTQCENPEKNEAFLDQRLILERLQVMYTVGYSLSLATLLLALLILSLFRRLHCTRNYIHINLFTSFMLRAAAILSRDRLLPRPGPYLGDQALALWNQALAACRTAQIVTQYCVGANYTWLLVEGVYLHSLLVLVGGSEEGHFRYYLLLGWGAPALFVIPWVIVRYLYENTQCWGRNEVKAIWWIIRTPILMTILINFLIFIRILGILLSKLRTRQMRCRDYRLRLARSTLTLVPLLGVHEVVFAPVTEEQARGALRFAKLGFEIFLSSFQGFLVSVLYCFINKEVQSEIRRGWHHCRLRRSLGEEQRQLPERAFRALPSGSGPGEVPTSRGLSSGTLPGPGNEASRELESYC
B2: p.Arg341Pro (protein, UniProt P48546 22-466, looked up, variant R341P)
Gastric inhibitory …: B1 Gastric inhibitory … with G267E, R320P
B3: p.Ser447Thr (protein, UniProt P48546 22-466, looked up, variant S447T)
Gastric inhibitory …: B1 Gastric inhibitory … with G267E, S426T
B4: p.Glu354Gln (protein, UniProt P48546 22-466, looked up, variant E354Q)
Gastric inhibitory …: B1 Gastric inhibitory … with G267E, E333Q
B5: p.Thr116Arg (protein, UniProt P48546 22-466, looked up, variant T116R)
Gastric inhibitory …: B1 Gastric inhibitory … with T95R, G267E
B6: p.Ile378Met (protein, UniProt P48546 22-466, looked up, variant I378M)
Gastric inhibitory …: B1 Gastric inhibitory … with G267E, I357M
B7: p.Ser64Ala (protein, UniProt P48546 22-466, looked up, variant S64A)
Gastric inhibitory …: B1 Gastric inhibitory … with S43A, G267E
B8: p.Leu100Phe (protein, UniProt P48546 22-466, looked up, variant L100F)
Gastric inhibitory …: B1 Gastric inhibitory … with L79F, G267E
B9: p.Gly438Ser (protein, UniProt P48546 22-466, looked up, variant G438S)
Gastric inhibitory …: B1 Gastric inhibitory … with G267E, G417S
B10: p.Arg101His (protein, UniProt P48546 22-466, looked up, variant R101H)
Gastric inhibitory …: B1 Gastric inhibitory … with R80H, G267E
B11: p.Ser415Ile (protein, UniProt P48546 22-466, looked up, variant S415I)
Gastric inhibitory …: B1 Gastric inhibitory … with G267E, S394I
B12: p.Glu463Gln (protein, UniProt P48546 22-466, looked up, variant E463Q)
Gastric inhibitory …: B1 Gastric inhibitory … with G267E, E442Q
B13: p.Arg336Pro (protein, UniProt P48546 22-466, looked up, variant R336P)
Gastric inhibitory …: B1 Gastric inhibitory … with G267E, R315P
B14: p.Arg300Trp (protein, UniProt P48546 22-466, looked up, variant R300W)
Gastric inhibitory …: B1 Gastric inhibitory … with G267E, R279W
B15: p.Arg404His (protein, UniProt P48546 22-466, looked up, variant R404H)
Gastric inhibitory …: B1 Gastric inhibitory … with G267E, R383H
B16: p.Asp66Gly (protein, UniProt P48546 22-466, looked up, variant D66G)
Gastric inhibitory …: B1 Gastric inhibitory … with D45G, G267E
B17: p.Ile403Val (protein, UniProt P48546 22-466, looked up, variant I403V)
Gastric inhibitory …: B1 Gastric inhibitory … with G267E, I382V

Legend:
[1] = test system: wild-type and variant SNAP-GIPR; experiment: Surface SNAP-GIPR expression (SNAP-tag labelling) in AD293 cells; assay type: cell-based, human; details: level of surface expression, based on in vitro functional data in AD293 cells; summary classification
Protocol: Twenty-four hours before the experiment, AD293 or INS-1 cells were reverse transfected with GIPR variant or wild-type plasmids using Lipofectamine 2000 in 96-well, clear-bottom, black microplates precoated with poly-D-lysine. All variants were tested in parallel on each occasion to control for transfection efficiency differences between experiments. Cells were then labeled using the cell-impermeant probe SNAP-Surface Alexa Fluor 647 (500 nM, New England Biolabs, USA) for 10 min at room temperature to label only surface GIPR. […] Several fields of view (FOVs) were acquired within each well using a 20X, 0.75–numerical aperture (NA) air objective. Surface GIPR fluorescence was quantified after flat-field correction using BaSiC ([72]) and segmenting using Phantast ([73]), which generates a mask based on the phase contrast images to demarcate cell versus noncell. Wide-field imaging of the surface-specific labeling achieved by SNAP-Surface probes means that surface expression can be established from whole-cell fluorescence, after subtracting nonspecific fluorescence from a separate well containing nontransfected cells processed in parallel from the same experiment. Data were normalized by dividing by the average specific signal across each experiment, or by the wild-type value, as indicated in the figure legends.

[2] = test system: wild-type and variant SNAP-GIPR; experiment: Single-concentration GIP cAMP response by HTRF in AD293 cells; assay type: cell-based, human; details: cAMP responses to 100 pM GIP in AD293 cells; summary classification (decrease/neutral/increase)
Protocol: All variants were tested in parallel on each occasion to control for transfection efficiency differences between experiments.

Molecule	Surface expression [1]	cAMP response [2]
B1	decrease	decrease
B2	decrease	decrease
B3	neutral	neutral
B4	decrease	increase
B5	neutral	decrease
B6	increase	neutral
B7	decrease	decrease
B8	neutral	neutral
B9	neutral	neutral
B10	decrease	decrease
B11	neutral	neutral
B12	neutral	neutral
B13	neutral	neutral
B14	decrease	decrease
B15	decrease	decrease
B16	decrease	decrease
B17	neutral	neutral
